Data: patent US20230287087A1 (MAX PLANCK GESELLSCHAFT ZUR F RDERUNG DER WISSENSCHAFTEN E V, published 2023)
Residue numbers refer to the chain shown, from its start. Values joined by “and” are separate entries in the source; they are usually repeats but may differ in a detail not shown here. Equal entries are not always repeated.

B1: Re9F06-SpacerA-Re9B09 (bispecific antibody)
chain: GSQVQLVESGGGLVQAGGSLRLSCAASGRTFSNDALGWFRQAPRKEREFVAAINWNSGTYYADSVKGRFTISRDNAKNTVYLQMNSLKPEDTAVYSCAAASDYGLPREDFLYDYWGQGTQVTVSSTSGEGEGGEGGEGSQVQLVESGGGLVQPGGSLRLSCAASGFTLDYYAIGWFRQAPGKEREGVSRISSSDGSTDYADSVKGRFTISRDNAKNTVYLQMNSLKPEDTAVYYCATVPGTYYSGNWYYTWHPEAVDYWGKGTQVTVSSTS
B2: Re9F06-SpacerA-Re5D06R28D (bispecific antibody)
chain: GSQVQLVESGGGLVQAGGSLRLSCAASGRTFSNDALGWFRQAPRKEREFVAAINWNSGTYYADSVKGRFTISRDNAKNTVYLQMNSLKPEDTAVYSCAAASDYGLPREDFLYDYWGQGTQVTVSSTSGEGEGGEGGEGSQVQLVESGGGLVQPGGSLRLSCAISGSTLDYYAMGWFREAPGKEREGVARWRNNDGSTNYADSVKGRFTMSRDNAKDTYYLQMNSLEPEDTADYYCAYGPLTKYGDEWHWPYEYDYWGQGTQVTVSSTS
B3: Re6H06 (VHH)
VHH: QVQLVESGGGLVQPGGSLRLSCAASGVTLDYYAIGWFRQAPGKEREGVSCTSSSDGSTYYADSVKGRFTISRDNAKNTVYLQMNSLKPEDTGVYYCAVVPQTYYGGKYYSQCTANGMDYWGKGTLVTVSS
B4: Re9F06 (VHH)
VHH: QVQLVESGGGLVQAGGSLRLSCAASGRTFSNDALGWFRQAPRKEREFVAAINWNSGTYYADSVKGRFTISRDNAKNTVYLQMNSLKPEDTAVYSCAAASDYGLPREDFLYDYWGQGTQVTVSS
B5: Re9B09 (VHH)
VHH: QVQLVESGGGLVQPGGSLRLSCAASGFTLDYYAIGWFRQAPGKEREGVSRISSSDGSTDYADSVKGRFTISRDNAKNTVYLQMNSLKPEDTAVYYCATVPGTYYSGNWYYTWHPEAVDYWGKGTQVTVSS
B6: Re9H03 (VHH)
VHH: B5 VHH with E115K, Q125L
B7: Re9H01 (VHH)
VHH: QVQLVESGGGLVQAGDSLRLSCAASGNIFSINAMGWYRQAPGKQRELVAFITSRGSTNYTDSVKGRFTISRDTAKDTVYLQMNSLKPEDTAVYFCRGGYSDYDIYFGSWGQGTQVTVSS
B8: Re10B10 (VHH)
VHH: QVQLVESGGGLVQPGGSLRLSCAASGFTLDYYAIGWFRQAPGKEREGVSRIRSSDGSTTYADSVKGRFTISRDNAKNTVYLQMNSLKPEDTAVYYCAYGPLTKYGSSWYWPYEYDYWGQGTQVTVSS
B9: Re10F10 (VHH)
VHH: B8 VHH with S53N, S54N, T59D
B10: Re7B01 (VHH)
VHH: B8 VHH with A23G, S54N, T59D
B11: Re6B02 (VHH)
VHH: B8 VHH with G10A, A23V, T59N
B12: Re7E02 (VHH)
VHH: QVQLVESGGGLVQAGGSLRLSCAASGFTLDYYAIGWFRQAPGKEREGVSYIRSSDGTTYYADSVKGRFTISRDNAKNTVYLQMNSLKPEDTAVYYCAADEAYYSELGWESPWGWSYWGQGTQVTVSS
B13: Re6B06 (VHH)
VHH: QVQLVESGGGLVQAGGSLRLSCAASGRAFSSAPMSWFRQAPGKEREFVASVSWSGDSTNYADSVKGRFTISRDNAKNTGYLQMNSLKPEDTAVYYCKRGPYWGQGTQVTVSS
B14: Re7H02 (VHH)
VHH: B13 VHH with S30E, K76E
B15: Re6D06 (VHH)
VHH: QVQLVESGGGLVQAGASLRLSCAASGRMFGVYRMGWFRQAPGKEREFVAGISTSVGTTNYADSVKGRFTISRDNAKNTVYLQMNSLKPEDTAVYYCAARDPTTYEYDYWGQGTQVTVSS
B16: Re9B10 (VHH)
VHH: B15 VHH with A14P, A16G
B17: Re5F10 (VHH)
VHH: QVQLVESGGGLVQPGGSLRLSCVASGFTFSSFAMGWYRQAPGKECEWVATITITGGSTNYADSVKGRFTISRDNAKNTVYLQMNSLKPEDTAVYYCNPDPGCRRGQGTQVTVSS
B18: Re9C08 (VHH)
VHH: QVQLVESGGGLVQPGGSLRLSCAVSGNIFGITAWDWHRQAPGKQRELVAHITSRGDTYYLDSVKGRFAISRDHAKNTLSLQMNSLKPEDTAVYYCYLRTFGPPNDHWGQGTQVTVSS
B19: Re5D06R15 (VHH)
VHH: QVQLVESGGGLVQPGGSLRLSCAASGITLDYYAMGWFREAPGKEREGVARIRNSDGSTNYADSVKGRFTMSRDNAKDTYYLQMNSLEPEDTADYYCAYGPLTKYGSSWYWPYEYDYWGQGTQVTVSS
B20: Re5D06R28 (VHH)
VHH: B19 VHH with A24I, I27S, I51W, S54N, Y109H
B21: Re5D06 (VHH)
VHH: B8 VHH with F27I, T59N, I70M
B22: Re6A11 (VHH)
VHH: B4 VHH with Q118L
B23: Re6A11/Re9F06 ColXVIII trimer (VHH)
VHH: B4 VHH with Q118L
B24: Re5A08 (VHH)
VHH: QVQLVESGGGLVQAGGSLRLSCTASGHTFTANRMGWFRQAPGKEREFVAAINWGGDSTNYVDSVKGRFTISRDIAKNTVYLQMNSLKPEDTAVYFCAARNHVTGEFDSWGQGTQVTVSS

The binders below were run against T1, SARS-CoV-2 spike receptor-binding domain (RBD), wild type (SARS-CoV-2, UniProt P0DTC2 319-541) (assay: BLI, biotinylated VHH heterodimer on streptavidin sensor, RBD in solution).

Row | Binder | Kd [pM]
1 | B1 | ≤ 10
2 | B2 | ≤ 10

What follows are binders tested against T2, B.1.617.2/Delta RBD (40592-V08H90, Sino Biologicals) (SARS-CoV-2, UniProt P0DTC2 319-541) in the same assay as above.

Row | Binder | Kd [pM]
3 | B1 | ≤ 10
4 | B2 | ≤ 10

Each binder was assayed against Brazilian RBD mutant (K417T, E484K, N501Y) (SARS-CoV-2, UniProt P0DTC2 319-541) (assay: BLI).

Row | Binder | Kd [pM]
5 | B3 | ≤ 10

These binders were tested against T3, Californian RBD mutant (L452R) (SARS-CoV-2, UniProt P0DTC2 319-541) (assay: BLI).

Row | Binder | Kd [pM]
6 | B3 | 50

The binders below were run against South African RBD mutant (K417N, E484K, N501Y) (SARS-CoV-2, UniProt P0DTC2 319-541) (assay: BLI).

Row | Binder | Kd [pM]
7 | B3 | ≤ 10

These binders were tested against T4, Spike protein of patient-derived SARS-CoV-2 (D614G) (SARS-CoV-2, UniProt P0DTC2 14-1273) (assay: cell-based or functional assay).

Row | Binder | Lowest SARS-COV-2-neutralizing concentration [pM]
8 | B4 | 50000
9 | B3 | 50
10 | B5 | 170
11 | B6 | 170
12 | B7 | 170
13 | B8 | 50
14 | B9 | 50
15 | B10 | 50
16 | B11 | 50
17 | B12 | 500
18 | B13 | 170000
19 | B14 | 17000
20 | B15 | 500
21 | B16 | 500
22 | B17 | 1700
23 | B18 | 500

Molecular target: T4, Spike protein of patient-derived …
Assay: cell-based or functional assay
Remark: another data set of the same source

Row | Binder | viral RNA in supernatants of infected cells (qRT-PCR), fold inhibition [fold]
24 | B13 | ~300

These binders were tested against T1, SARS-CoV-2 spike receptor-binding … (assay: BLI, biotinylated VHH on streptavidin sensor, RBD in solution).

Row | Binder | Kd [pM]
25 | B3 | ≤ 10
26 | B5 | ≤ 10
27 | B19 | ≤ 10
28 | B20 | ≤ 10
29 | B17 | 40

Each binder was assayed against T2, B.1.617.2/Delta RBD (40592-V08H90, Sino …) in the same assay as above.

Row | Binder | Kd [pM]
30 | B3 | ≤ 10
31 | B5 | 100
32 | B19 | 30
33 | B20 | 80
34 | B17 | 40

Each binder was assayed against T1, SARS-CoV-2 spike receptor-binding … (assay: method not stated).

Row | Binder | Kd [pM]
35 | B3 | ≤ 1
36 | B17 | 30

The binders below were run against quadruple (K417T, L452R, E484K, N501Y) RBD mutant (SARS-CoV-2, UniProt P0DTC2 319-541) (assay: method not stated).

Row | Binder | fold better binding than Re9B09 [fold] | Kd [pM]
37 | B6 | 100 | 
38 | B17 |  | 30

What follows are binders tested against T3, Californian RBD mutant (L452R) (assay: method not stated).

Row | Binder | Kd [pM]
39 | B21 | ~400

Molecular target: T4, Spike protein of patient-derived …
Assay: cell-based or functional assay
Remark: another data set of the same source

Row | Binder | Lowest neutralizing VHH concentration
40 | B22 | 50000 pM and 750 µg/liter
41 | B23 | 170 pM and 4 µg/liter
42 | B24 | 5000 pM and 75 µg/liter
43 | B13 | 50000 pM and 750 µg/liter
44 | B14 | 17000 pM and 250 µg/liter
45 | B15 | 1700 pM and 25 µg/liter
